According to the DeepSol protein solubility set:

Assay: soluble on expression in E. coli; label from the status in PepcDB or PDB records

Row | Sequence | soluble on expression in E. coli
1 | MAVNVYSTSVTSDNLSRHDMLAWINESLQLNLTKIEQLCSGAAYCQFMDMLFPGSIALKKVKFQAKLEHEYIQNFKILQAGFKRMGVDKIIPVDKLVKGKFQDNFEFVQWFKKFFDANYDGKDYDPVAARQGQETAVAPSLVAPALNKPKKPLTSSSAAPQRPISTQRTAAAPKAGPGVVRKNPGVGNGDDEAAELMQQVNVLKLTVEDLEKERDFYFGKLRNIELICQENEGENDPVLQRIVDILYATDEGFVIPDEGGPQEEQEEY | soluble
2 | MAVSKNVTVIPARKHTRKSKDEEKPKLRVAAYCRVSTDSEEQATSYDTQIEHYTAYIQGHPDWMLAGIFADDGISGTNTKKREEFNRMIDECMAGNIDMIITKSISRFARNTLDCLKYIRQLKDKNIPVYFEKENINTMDSKGEVMLTIMASLAQQESQSLSQNVKLGLQYRYQQGEIQVNCARFLGYTKDENKRLVVVPEEAEIVKRIYREYLEGASMLKIARGLEADGILNGAGNERWHTSNINNILRNEKYIGDALLQKTYTVDFLTKKRVKNNGIVPQYYVENSHEAIIPREVFMQVQEELIRRRIVHTSPNGKTRTFSSNHVFAQIIICGKCGEVFRRVHWNNRGKKSIVWRCVSRLENTGLFCDARTVLESTIEQVLVTAINQTLCDKDSFLTTLRDNIATIINRESDKALADIDKRLEELQTELLKLATSNADYEKVGDEIHSLRDQKQKLQVENANRDELKKQIADMSTFLKKQSTALAEYDKQLVRRLIDKVTVFEDKFTVEFKSGVTVDVDE | soluble
3 | MAVYRTVQVNFWQDDFVLDLTPEERYFYVYLLTCSKTTQCGIFPFPKRLAEMETGYNRETVDKLVQRFVDYGKILYDAETRELFVLNWLRYNPVTNTNVEKCVLRELKGVKNKEFVHMFLQKCVEEELNVPMLLAHFGMPSDLAVDDVEPVCEEAEEEEVIEEETGSRVFSFYEQHFGSLSPHTVEELSAWMEDLSEELVLKALQIAFENNKRTVAYVKGILRGWHGKGFTKVSEVEADTASFRKKDLSVSTGETEEFLARCEEWEKNAPSEEELQRFLAERGWRP | soluble
4 | MAWTFDEKSPIYLQIAYRVKLKIASKELSMGQQLLPVREFAQEAGVNPNTVQRAFQELEKEGLVYSARTSGRFVTEDEKLIDQKRHEIAQTLMKNFVTEMTAIGFSSPEIKTIITDYIEQTGKDL | not soluble
5 | MAWWKAWIEQEGVTVASSSHFNPDPDAETLYKAMKGIGTNEQAIIDVLTKRSNTQRQQIAKSFKAQFGKDLTETLKSELSGKFERLIVALMYPPYRYEAKELHDAMKGLGTKEGVIIEILASRTKNQLREIMKAYEEDYGSSLEEDIQADTSGYLERILVCLLQGSRDDVSSFVDPALALQDAQDLYAAGEKIRGTDEMKFITILCTRSATHLLRVFEEYEKIANKSIEDSIKSETHGSLEEAMLTVVKCTQNLHSYFAERLYYAMKGAGTRDGTLIRNIVSRSEIDLNLIKCHFKKMYGKTLSSMIMEDTSGDYKNALLSLVGSDP | soluble
6 | MAYDLAVPGPIMQEVAQYLASLSGKAVVINIFAGHADRSLSQTQLAELLDKLLARHPGSAVILLDHRREIRIPLPPEVVINPFNTLHHAMALIAQAELIISPDTSVVHMAAAWNKPLIAVYKDVLLNNRLWAPGYDNARQIIVKCGKVHQHRGLVDRIIAALPETLLEHHHHHH | not soluble
7 | MAYNKEEKIKSLNRMQYEVTQNNGTEPPFQNEYWDHKEEGLYVDIVSGKPLFTSKDKFDSQCGWPSFTKPIEEEVEEKLDTSHGMIRTEVRSRTADSHLGHVFNDGPGPNGLRYCINSAALRFVPKHKLKEEGYESYLHLFNK | not soluble
8 | MCICPNRQTAASVGQRYGEPVVLRVDAGRMHRNGLPFFKADNGVWLTAQVPAAFLTRPRLEHHHHHH | not soluble
9 | MCILFIAIEQHPKYPLIICANRDEFHQRPTQAMHVWQESNILAGKDLQAGGTWLGLSSTGKFAALTNFRKLPLSEAPKKSRGDLVLQALADTKINMTAELAQQASQYHGFNLIYGSLKQLYCYDSVNNQSHQLSDGVHSICNGALDDIWPKMARGEKLLSETIRSQKNLSIEALFDLMTNDKQALPHLLPETGLDEEWEQLLSAIFIKSPTYGTRTTTIITQDVEGNVETYDRSYAPSGECITKQQFNLATVFDLEHHHHHH | not soluble
10 | MCMNKKRIYKFRRFLARKLDFPSDAVMYTPRINISVTGDEEITIENYRGIVEFSDENIKVNTEVGTISIDGKNFEIVFISGSTIILGGKFKTIAYGGDKNEALEHHHHHH | soluble
11 | MCMNTQSPPSPHDPHGAAALPFRLWTAEERRASLDTALREWRDGEDVWVYGYGSLIWRPDFDFVERRLATLHGHHRALLWSRVNRGTPECPGLVFGLDRGGSCRGVVYRLAGRQVPDYFPALWDREMSTGAYLPRWLRCATEHGPVNALVFIMNRANPAYIRALPEPELLAIVRRASGRYGPCTEYVVQTAQALRQAGIRDARLEQIARQLEAEVHPLGVLEHHHHHH | soluble
12 | MCMPRYTQPKKTWFYPVNFKIKAVELSLRNDMLSKDVAQALDIHPLMLSRWRKEYREGKFKKNQHYQSNSELMSKIPTKKELNKIKQLQKENDRLKMENDLLKKWQRYLAEVHQSDLDSSKNTKKPLEHHHHHH | soluble
13 | MCMQAQDVTIRDQEIKLGQFIKLANLVETGGAAKEVIAEGRVTVNGAVDTRRGKTLRDGDVVCIGTACARVVAGAADDDDYFDEKTANDDFDPEVWRNM | not soluble
14 | MCPILWTRNGSHCYYFSMEKKDWNSSLKFCADKGSHLLTFPDNQGVKLFGEYLGQDFYWIGLRNIDGWRWEGGPALSLRILTNSLIQRCGAIHRNGLQASSCEVALQWICKKVLY | soluble
15 | MCPKCGTECDKLFDSVCRDCFFETFKLIDLPLVLHVKICSSCGAYFHRSRWENIGNLEEVVLKAVENALFIHDEAGDVELYLEPKEITPYIYMVRAEVDAIVRGEPVHAEAATEVRVQRIACDMCSRESGGYFEAIIQIRAAGRFPTEEEKRRCSAIAREAMESMKKKGDRLAFISDYQEQKEGIDLYMGSMNASRQVCRMIISELGGSFAESPTLVGMKDGKNLYRITFAMRLPLEHHHHHH | not soluble
16 | MCSALVVAAPHSGSGKTTVTAAIARYHRVQGRKVTVFKVGPDFIDPMILRQASGELVYQLDLWLVGEQGCRALLHRAAMDSDLILIEGVMGLFDGTPSSADLAKYFNIPVLGVIDAKAMAQTFAAVTFGLAKFCEDLPFSGVIANRVNTERHAELLSVSLPKAFRFYGRIPKDDTITLPERHLGLVQAQELSDIDVQLDKAASHIANTGLTELPSQVEFFAQEDDNQENIIEGALAGTRIIIIRDSAFSFIYAANIAFLTQTGAELIYCSAMADVHLPDGDILYIPGGYPELYAEQLMNNVTFLSDIRAFSASNKPIVAECGGMLYLLEQLTDMEGQQFSMLGLMPGKATMQKKLAAIGSQWVPLPSFADAAEDSADNIMRGHSFHYSCAEIELEPSSQTTHHPSERAGEYVYQHNNILASYMHWYFPSNPSLTLRIFDKARYLLEHHHHHH | soluble
17 | MCSSPTTLFLLFALVSTSYALLGVGRTQSVAVSGRVICNGQPASGVKLKLYEKESTFDVLLEEATSDANGQFRLSGSKTEISTIDPKLNIYHKCNYNGLCYKKIGITIPDNYVSSGKTPSKTYDIGTLNLANQYTGQTTDCIN | not soluble
18 | MCTGLALETKDGLHLFGRNMDIEYSFNQSIIFIPRNFKCVNKSNKKELTTKYAVLGMGTIFDDYPTFADGMNEKGLGCAGLNFPVYVSYSKEDIEGKTNIPVYNFLLWVLANFSSVEEVKEALKNANIVDIPISENIPNTTLHWMISDITGKSIVVEQTKEKLNVFDNNIGVLTNSPTFDWHVANLNQYVGLRYNQVPEFKLGDQSLTALGQGTGLVGLPGDFTPASRFIRVAFLRDAMIKNDKDSIDLIEFFHILNNVAMVRGSTRTVEEKSDLTQYTSCMCLEKGIYYYNTYENNQINAIDMNKENLDGNEIKTYKYNKTLSINHVN | soluble
19 | MCTTCGCAEGNLYIEGDEHNPHSAFRSAPFAPAARPALNITGIKTPDFAPSQTAEGDLHYGHGEAGTHAPGMSQRRMLEVEIDVLDKNNRLAERNRARFAARQQLVLNLVSSPGSGKTTLLTETLMKLKDRVPCAVIEGDQQTVNDAARIRATGTPAIQVNTGKGCHLDAQMIADAAPRLPLDDHGILFIENVGNLVCPASFDLGEKHKVAVLSVTEGEDKPLKYPHMFAAASLMLLNKVDLLPYLNFDVEKCIASAREVNPEIEIILISATSGEGMDQWLAWLEAQRCA | not soluble
20 | MDAHQIISFIQNSKKATPVKVYLKGDLEKIDFPSDVKTFITGNAGTIFGEWAVVEPLLEANKANIEDYVIENDRRNSAIPLLDMKNI | not soluble
21 | MDAKETSATDLKRPREEDDNGGAATMETENGDQKKEPACFSTVIPGWFSEMSPMWPGEAHSLKVEKVLFQGKSDYQDVIVFQSATYGKVLVLDGVIQLTERDECAYQEMITHLPLCSIPNPKKVLVIGGGDGGVLREVARHASIEQIDMCEIDKMVVDVSKQFFPDVAIGYEDPRVNLVIGDGVAFLKNAAEGSYDAVIVDSSDPIGPAKELFEKPFFQSVARALRPGGVVCTQAESLWLHMDIIEDIVSNCREIFKGSVNYAWTSVPTYPSGVIGFMLCSTEGPDVDFKHPLNPIDESSSKSNGPLKFYNAEIHSAAFCLPSFAKKVIESKAN | soluble
22 | MDALIAQLQRQFRDYTISLYQQGFLDDQFTELKKLQDDGSPDFVSEVLSLFFEDCVKLISNMARALDTTGTVDFSQVGASVHQLKGSSSSVGAKRVKTLCVSFKECCEAKNYEGCVRCLQQVDIEYKALKTKLQDMFNLEKQIIQAGGIVPQVDIN | soluble
23 | MDALKLLTNRRSSKKLKHPAPDAAELEQIFQAATQVPDHGNMRPFRFTVIQGEVGLQRFRDVLKQTVAELNFGDDAMKKAEKVGNMAPMVIGVTFAPNRDVPKPKPEWEQMLTAGCAAYALQLAATAQGFDNVWITGMWVNSPLLREAFGCADKDKIIGLMMVGTPTEEVHKPKNTDLEAFVSHW | not soluble
24 | MDCHKLRRLLKKEEGPKLDFKAEYDLSTESGKKELTKDVIAIANSRGGRGYIILGIEDKTKRVLGIEPKRYTEEQIQQIIYNRCDPPVPISVDFVGLDGKTVGVITVYRSSHKPHQMIQNGAFYIRRGSTTDIARRSEIANLFQENGLMTYETVILKNVGMEELDFGLIKDYFKTLNVFSDNPSELILEALGIIGQKSDTEEYHPTIGGLLLFGKNPSLYLPHVYVKVVYNGEARLFFGNILKMLDDVSDYMRSIIKVEGYPFNALEEVIANALVHRDYLDVSKGIVITVTDKNIEISNPGALIAGNSVYSFSREINPDRRNPWLYQRLLTLDPKKRFMKSGVGLKRVKKSFTGIGPVKFINIGSQNLFKVLLPIGKKQESTSDTSGLF | soluble
25 | MDDHAFAAPAPAAPTAPALPMAVLAELTHRCPLQCPYCSNPVELEAASRELSTEDWQRVIGELAALGVLQIHFSGGEPLVRRDLVALVAHADRAGLYTNLITSAVMFTRAKVAELAEAGLAHVQVSLQGASAPVAERIGGFRGGHAKKIEAAAWVRAEGMALTLNAVMHRQNLDELPRIVEMAVEMGAQRLEVAHVQYYGWALKNRAALMPTLAQLDEATRIVEEAQARLSGVLAIDYVIPDYYAVRPKTCMGGWGRQFFNISPSGKVLPCHAAETITGLRFDSVREAPLAEIWQRSEALNLYRGTGWMQEPCRSCIHAEEDFGGCRCQAFALAGDAAATDPACAKSPLHAQLFSLAGAEAEAGADRFLYRNFSGGTPEG | not soluble
